Columns and labels:
SEC = target: the molecule itself; assay: SEC
[1] = substrate: [H][C@@]12COP(=O)(O)O[C@@]1([H])[C@@H](O)[C@H](n1cnc3c(=O)[nH]c(N)nc31)O2; assay: [3H]cGMP hydrolysis, scintillation counting, Michaelis-Menten fit; assay type: biochemical, Saccharomyces cerevisiae; settings: 50 mM Tris-HCl pH 7.5, room temperature, no added ion, labelled compound

B1: yeast phosphodiesterase-1 (yPDE1), full length (residues 1-369) (enzyme, Saccharomyces cerevisiae, UniProt P22434 1-369, looked up)
chain: MVVFEITILGANGGPTEYGTQCFILKPARTEDPELIAVDGGAGMYQLREMLVQGRNENEGDDELVPSFYEHDREPIEFFIDSKLNIQKGLSKSLLQSLKRQGEHFESANTMKKTYEVFQGITDYYITHPHLDHISGLVVNSPSIYEQENSKKKTIWGLPHTIDVLQKHVFNDLIWPDLTAERSRKLKLKCLNPKEVQKCTIFPWDVIPFKVHHGIGVKTGAPVYSTFYIFRDRKSKDCIIVCGDVEQDRRESEESLLEEFWSYVAENIPLVHLKGILVECSCPLSSKPEQLYGHLSPIYLINELSNLNTLYNSSKGLSGLNVIVTHVKSTPAKRDPRLTILEELRFLAEERNLGDLRISIALEGHTLFL
- stoichiometry N (SEC): 2
- Km [1]: 104.7 ± 10.2 µM
- kcat [1]: 11.8 ± 1 s⁻¹
- kcat/Km [1]: 113000 M⁻¹ s⁻¹

From article PMC4144708 (Biochemistry, 2014)
